Data on 8 molecules can be found in patent US20140249076A1, “AMYLIN-CALCITONIN CHIMERIC PEPTIDES CONJUGATED TO DURATION ENHANCING MOIETIES” (AMYLIN PHARMACEUTICALS, LLC, priority 2011, published 2014).

Numbered stars: 1 amine (or outer) side, 2 acyl side, 3 side chain; on linkers, the order of the positions; unused ones are H or OH. Side chains are listed from the residue outwards. Ends that are not written are not given here. γGlu = O=C(O)[C@H](CCC(=O)[*:2])N[*:1]

One assay has as its target amylin receptor (RNA membranes). As to the kind of experiment: displacement of 125I-rat amylin from RNA membranes. (Displacement assays read how much labelled ligand stays bound in the presence of the test substance.)
By IC50 is commonly meant the point on the concentration scale where inhibition reaches its midpoint. In the case of KCNTATCALQRLAQELHK([γGlu-C16‑Chain])LQTYPRTNVGSNTY-NH2 (ends and bridges not checked) [Cmpd 186 ([K^18ε-(γ-Glu(Nα-C16-Chain))]-Cmpd 17)], the IC50 worked out at 0.806 nM.
Molecule KCNTATCALQRLAQELHRLQTYPRTK([γGlu-C16‑Chain])VGSNTY-NH2 (ends and bridges not checked) [Cmpd 189 ([K^26ε-(γ-Glu(Nα-C16-Chain))]-Cmpd 17)] came in with an IC50 of 4.01 nM.
For KCNTATCALQRLAQELHRLQK([γGlu-C16‑Chain])YPRTNVGSNTY-NH2 (ends and bridges not checked) [Cmpd 187 ([K^21ε-(γ-Glu(Nα-C16-Chain))]-Cmpd 17)], the IC50 turned out to be 0.446 nM.
On the same count and under the same terms, in the case of KCNTATCALQRLAQELHRLQTYPK([γGlu-C16‑Chain])TNVGSNTY-NH2 (ends and bridges not checked) [Cmpd 188 ([K^24ε-(γ-Glu(Nα-C16-Chain))]-Cmpd 17)] it was 1.61 nM; in that of KCNTATCALQK([γGlu-C16‑Chain])LAQELHRLQTYPRTNVGSNTY-NH2 (ends and bridges not checked) [Cmpd 193 ([K^11ε(γ-Glu(Nα-C16-Chain))]-Cmpd 17)], 0.73 nM.

A further assay concerns the target rat C1a calcitonin receptor (rat) (UniProt P32214). As to the kind of experiment: displacement of 125I-human calcitonin from C1a-HEK cell membranes.
Regarding KCNTATCALQRLAQELHK([γGlu-C16‑Chain])LQTYPRTNVGSNTY-NH2 (ends and bridges not checked) [Cmpd 186 ([K^18ε-(γ-Glu(Nα-C16-Chain))]-Cmpd 17)], the IC50 amounted to 1.07 nM.
KCNTATCALQRLAQELHRLQTYPRTK([γGlu-C16‑Chain])VGSNTY-NH2 (ends and bridges not checked) [Cmpd 189 ([K^26ε-(γ-Glu(Nα-C16-Chain))]-Cmpd 17)]: the IC50 was determined as 1.49 nM.
As to KCNTATCALQRLAQELHRLQK([γGlu-C16‑Chain])YPRTNVGSNTY-NH2 (ends and bridges not checked) [Cmpd 187 ([K^21ε-(γ-Glu(Nα-C16-Chain))]-Cmpd 17)], the IC50 turned out to be 0.151 nM.
KCNTATCALQRLAQELHRLQTYPK([γGlu-C16‑Chain])TNVGSNTY-NH2 (ends and bridges not checked) [Cmpd 188 ([K^24ε-(γ-Glu(Nα-C16-Chain))]-Cmpd 17)]: the IC50 is 0.898 nM.
The same measure, in the same setting: in the case of K([γGlu-C16‑Chain])CNTATCALQRLAQELHRLQTYPRTNVGSNTY-NH2 (ends and bridges not checked) [Cmpd 192 ([K^1ε-(γ-Glu(Nα-C16-Chain))]-Cmpd 17)] it was 0.07 nM; in that of KCNTATCALQK([γGlu-C16‑Chain])LAQELHRLQTYPRTNVGSNTY-NH2 (ends and bridges not checked) [Cmpd 193 ([K^11ε(γ-Glu(Nα-C16-Chain))]-Cmpd 17)], 0.168 nM.
On to KCNTATCALQRLAQELHRLQTYPRTNVGSNTY-NH2 (ends and bridges not checked) [Cmpd 17], for which the IC50 is 0.095 nM.
As for K([γGlu-C16‑Chain])KCNTATCALQRLAQELHRLQTYPRTNVGSNTY-NH2 (ends and bridges not checked) [Cmpd 195 (Kε-(γ-Glu(Nα-C16-Chain))-Cmpd 17)], the IC50 was determined as 0.046 nM.

The target of the next assay is CGRP receptor (SK-N-MC cell membranes) (UniProt Q16602). As to the kind of experiment: displacement of 125I-human CGRP from SK-N-MC cell membranes.
CGRP receptor (SK-N-MC cell membranes), sequence (Q16602 23-461, chain 1 of 2): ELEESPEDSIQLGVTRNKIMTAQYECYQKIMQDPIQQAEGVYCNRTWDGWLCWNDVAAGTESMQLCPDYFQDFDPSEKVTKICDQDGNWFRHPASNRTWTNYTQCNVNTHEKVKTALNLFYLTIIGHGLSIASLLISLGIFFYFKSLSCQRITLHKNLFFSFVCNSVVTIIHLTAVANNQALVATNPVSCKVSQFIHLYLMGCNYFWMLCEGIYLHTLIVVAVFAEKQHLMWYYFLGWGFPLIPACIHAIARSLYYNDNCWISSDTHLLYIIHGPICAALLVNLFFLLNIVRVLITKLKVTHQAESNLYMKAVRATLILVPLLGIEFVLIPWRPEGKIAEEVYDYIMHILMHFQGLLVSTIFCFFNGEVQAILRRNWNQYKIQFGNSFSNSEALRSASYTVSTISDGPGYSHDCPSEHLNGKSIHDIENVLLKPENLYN
CGRP receptor (SK-N-MC cell membranes), sequence (O60894 27-148, chain 2 of 2, further chain): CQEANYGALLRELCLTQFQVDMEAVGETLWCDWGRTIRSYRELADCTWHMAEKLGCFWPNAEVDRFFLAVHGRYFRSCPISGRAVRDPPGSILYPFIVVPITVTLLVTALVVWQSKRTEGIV
KCNTATCALQRLAQELHK([γGlu-C16‑Chain])LQTYPRTNVGSNTY-NH2 (ends and bridges not checked) [Cmpd 186 ([K^18ε-(γ-Glu(Nα-C16-Chain))]-Cmpd 17)] registered an IC50 of 26.3 nM.
Molecule KCNTATCALQRLAQELHRLQTYPRTK([γGlu-C16‑Chain])VGSNTY-NH2 (ends and bridges not checked) [Cmpd 189 ([K^26ε-(γ-Glu(Nα-C16-Chain))]-Cmpd 17)] gave an IC50 of 75 nM.
The molecule KCNTATCALQRLAQELHRLQK([γGlu-C16‑Chain])YPRTNVGSNTY-NH2 (ends and bridges not checked) [Cmpd 187 ([K^21ε-(γ-Glu(Nα-C16-Chain))]-Cmpd 17)] displayed an IC50 of 0.77 nM.
Molecule KCNTATCALQRLAQELHRLQTYPK([γGlu-C16‑Chain])TNVGSNTY-NH2 (ends and bridges not checked) [Cmpd 188 ([K^24ε-(γ-Glu(Nα-C16-Chain))]-Cmpd 17)] yielded an IC50 of 100 nM.
In turn, KCNTATCALQK([γGlu-C16‑Chain])LAQELHRLQTYPRTNVGSNTY-NH2 (ends and bridges not checked) [Cmpd 193 ([K^11ε(γ-Glu(Nα-C16-Chain))]-Cmpd 17)] came in with an IC50 of 46.5 nM.
